Experimental findings from publication PMC9868088 are described below.

A short description of data set [1]: WB abundance of GFP-β-catenin. To be noted: glycan gained; control: GFP-β-catenin + individual aptamers T1 · AP3.
A short description of data set [2]: WB phospho-specific antibody. To be noted: glycan gained; control: GFP-β-catenin + individual aptamers T1 · AP3.
Data set [3] can be described thus: WB abundance of endogenous β-catenin. The following applies: glycan gained; control: individual aptamers T1 · bc339.

B1: β-catenin: NL1F DS aptamers (protein)
parent chain: MATQADLMELDMAMEPDRKAAVSHWQQQSYLDSGIHSGATTTAPSLSGKGNPEEEDVDTSQVLYEWEQGFSQSFTQEQVADIDGQYAMTRAQRVRAAMFPETLDEGMQIPSTQFDAAHPTNVQRLAEPSQMLKHAVVNLINYQDDAELATRAIPELTKLLNDEDQVVVNKAAVMVHQLSKKEASRHAIMRSPQMVSAIVRTMQNTNDVETARCTAGTLHNLSHHREGLLAIFKSGGIPALVKMLGSPVDSVLFYAITTLHNLLLHQEGAKMAVRLAGGLQKMVALLNKTNVKFLAITTDCLQILAYGNQESKLIILASGGPQALVNIMRTYTYEKLLWTTSRVLKVLSVCSSNKPAIVEAGGMQALGLHLTDPSQRLVQNCLWTLRNLSDAATKQEGMEGLLGTLVQLLGSDDINVVTCAAGILSNLTCNNYKNKMMVCQVGGIEALVRTVLRAGDREDITEPAICALRHLTSRHQEAEMAQNAVRLHYGLPVVVKLLHPPSHWPLIKATVGLIRNLALCPANHAPLREQGAIPRLVQLLVRAHQDTQRRTSMGGTQQQFVEGVRMEEIVEGCTGALHILARDVHNRIVIRGLNTIPLFVQLLYSPIENIQRVAAGVLCELAQDKEAAEAIEAEGATAPLTELLHSRNEGVATYAAAVLFRMSEDKPQDYKKRLSVELTSSLFRTEPMAWNETADLGLDIGAQGEPLGYRQDDPSYRSFHSGGYGQDALGMDPMMEHEMGGHHPGADYPVDGLPDLGHAQDLMDGLPPGDSNQLAWFDTDL
For B1, in data set [1], the expression_or_secretion result is reported as “increases”.

B2: β-catenin: NL1F30 (protein)
parent chain: MATQADLMELDMAMEPDRKAAVSHWQQQSYLDSGIHSGATTTAPSLSGKGNPEEEDVDTSQVLYEWEQGFSQSFTQEQVADIDGQYAMTRAQRVRAAMFPETLDEGMQIPSTQFDAAHPTNVQRLAEPSQMLKHAVVNLINYQDDAELATRAIPELTKLLNDEDQVVVNKAAVMVHQLSKKEASRHAIMRSPQMVSAIVRTMQNTNDVETARCTAGTLHNLSHHREGLLAIFKSGGIPALVKMLGSPVDSVLFYAITTLHNLLLHQEGAKMAVRLAGGLQKMVALLNKTNVKFLAITTDCLQILAYGNQESKLIILASGGPQALVNIMRTYTYEKLLWTTSRVLKVLSVCSSNKPAIVEAGGMQALGLHLTDPSQRLVQNCLWTLRNLSDAATKQEGMEGLLGTLVQLLGSDDINVVTCAAGILSNLTCNNYKNKMMVCQVGGIEALVRTVLRAGDREDITEPAICALRHLTSRHQEAEMAQNAVRLHYGLPVVVKLLHPPSHWPLIKATVGLIRNLALCPANHAPLREQGAIPRLVQLLVRAHQDTQRRTSMGGTQQQFVEGVRMEEIVEGCTGALHILARDVHNRIVIRGLNTIPLFVQLLYSPIENIQRVAAGVLCELAQDKEAAEAIEAEGATAPLTELLHSRNEGVATYAAAVLFRMSEDKPQDYKKRLSVELTSSLFRTEPMAWNETADLGLDIGAQGEPLGYRQDDPSYRSFHSGGYGQDALGMDPMMEHEMGGHHPGADYPVDGLPDLGHAQDLMDGLPPGDSNQLAWFDTDL
On to B2, for which, in data set [2], the “other: Ser675 phosphorylation” value is on record as “increases”.

B3: β-catenin: NL8F100 (protein)
parent chain: MATQADLMELDMAMEPDRKAAVSHWQQQSYLDSGIHSGATTTAPSLSGKGNPEEEDVDTSQVLYEWEQGFSQSFTQEQVADIDGQYAMTRAQRVRAAMFPETLDEGMQIPSTQFDAAHPTNVQRLAEPSQMLKHAVVNLINYQDDAELATRAIPELTKLLNDEDQVVVNKAAVMVHQLSKKEASRHAIMRSPQMVSAIVRTMQNTNDVETARCTAGTLHNLSHHREGLLAIFKSGGIPALVKMLGSPVDSVLFYAITTLHNLLLHQEGAKMAVRLAGGLQKMVALLNKTNVKFLAITTDCLQILAYGNQESKLIILASGGPQALVNIMRTYTYEKLLWTTSRVLKVLSVCSSNKPAIVEAGGMQALGLHLTDPSQRLVQNCLWTLRNLSDAATKQEGMEGLLGTLVQLLGSDDINVVTCAAGILSNLTCNNYKNKMMVCQVGGIEALVRTVLRAGDREDITEPAICALRHLTSRHQEAEMAQNAVRLHYGLPVVVKLLHPPSHWPLIKATVGLIRNLALCPANHAPLREQGAIPRLVQLLVRAHQDTQRRTSMGGTQQQFVEGVRMEEIVEGCTGALHILARDVHNRIVIRGLNTIPLFVQLLYSPIENIQRVAAGVLCELAQDKEAAEAIEAEGATAPLTELLHSRNEGVATYAAAVLFRMSEDKPQDYKKRLSVELTSSLFRTEPMAWNETADLGLDIGAQGEPLGYRQDDPSYRSFHSGGYGQDALGMDPMMEHEMGGHHPGADYPVDGLPDLGHAQDLMDGLPPGDSNQLAWFDTDL
On to B3, for which, in data set [3], the expression_or_secretion result is “increases”.

B4: β-catenin: 3JB8F+12 (protein)
parent chain: MATQADLMELDMAMEPDRKAAVSHWQQQSYLDSGIHSGATTTAPSLSGKGNPEEEDVDTSQVLYEWEQGFSQSFTQEQVADIDGQYAMTRAQRVRAAMFPETLDEGMQIPSTQFDAAHPTNVQRLAEPSQMLKHAVVNLINYQDDAELATRAIPELTKLLNDEDQVVVNKAAVMVHQLSKKEASRHAIMRSPQMVSAIVRTMQNTNDVETARCTAGTLHNLSHHREGLLAIFKSGGIPALVKMLGSPVDSVLFYAITTLHNLLLHQEGAKMAVRLAGGLQKMVALLNKTNVKFLAITTDCLQILAYGNQESKLIILASGGPQALVNIMRTYTYEKLLWTTSRVLKVLSVCSSNKPAIVEAGGMQALGLHLTDPSQRLVQNCLWTLRNLSDAATKQEGMEGLLGTLVQLLGSDDINVVTCAAGILSNLTCNNYKNKMMVCQVGGIEALVRTVLRAGDREDITEPAICALRHLTSRHQEAEMAQNAVRLHYGLPVVVKLLHPPSHWPLIKATVGLIRNLALCPANHAPLREQGAIPRLVQLLVRAHQDTQRRTSMGGTQQQFVEGVRMEEIVEGCTGALHILARDVHNRIVIRGLNTIPLFVQLLYSPIENIQRVAAGVLCELAQDKEAAEAIEAEGATAPLTELLHSRNEGVATYAAAVLFRMSEDKPQDYKKRLSVELTSSLFRTEPMAWNETADLGLDIGAQGEPLGYRQDDPSYRSFHSGGYGQDALGMDPMMEHEMGGHHPGADYPVDGLPDLGHAQDLMDGLPPGDSNQLAWFDTDL
Regarding B4, in data set [3], the expression_or_secretion result is reported as “increases”.
